Measured values reported in paper PMC4973710.

Molecular target: CPR-DA: human cytochrome P450 reductase doubly labelled with Cy5 (donor) and Alexa 750 (acceptor) (human) (UniProt P16435)
Sequence of UniProt P16435 (P16435 61-677): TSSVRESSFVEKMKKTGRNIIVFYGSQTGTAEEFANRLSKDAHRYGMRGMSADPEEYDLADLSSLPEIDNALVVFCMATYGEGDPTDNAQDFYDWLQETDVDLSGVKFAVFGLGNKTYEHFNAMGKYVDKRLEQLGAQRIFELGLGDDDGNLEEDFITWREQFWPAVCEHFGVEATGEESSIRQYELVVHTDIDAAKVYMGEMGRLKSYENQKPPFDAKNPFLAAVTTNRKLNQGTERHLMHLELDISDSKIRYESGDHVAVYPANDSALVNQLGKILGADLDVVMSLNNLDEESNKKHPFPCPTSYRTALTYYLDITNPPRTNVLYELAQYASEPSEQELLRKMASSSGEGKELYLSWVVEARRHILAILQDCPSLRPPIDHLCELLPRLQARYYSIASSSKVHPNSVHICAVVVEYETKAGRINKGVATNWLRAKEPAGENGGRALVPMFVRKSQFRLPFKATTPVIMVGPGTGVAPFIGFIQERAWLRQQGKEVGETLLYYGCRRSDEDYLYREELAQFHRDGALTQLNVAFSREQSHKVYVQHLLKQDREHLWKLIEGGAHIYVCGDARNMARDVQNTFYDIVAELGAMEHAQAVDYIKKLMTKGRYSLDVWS

second-order rate constant of ferric cyt c reduction by equimolar NADPH-reduced CPR-DA, first kinetic phase (UV-Vis double-mixing stopped-flow): 1.01e+06 M⁻¹ s⁻¹
second-order rate constant of ferric cyt c reduction by equimolar NADPH-reduced CPR-DA, second kinetic phase (UV-Vis double-mixing stopped-flow): 340000 M⁻¹ s⁻¹
Substance: bovine heart cytochrome c (from UniProt P62894 1-105) (natural protein)
